These results are taken from patent publication US20240190931A1, “MAGEC2 IMMUNOGENIC PEPTIDES, BINDING PROTEINS RECOGNIZING MAGEC2 IMMUNOGENIC PEPTIDES, AND USES THEREOF” (TScan Therapeutics, Inc., priority 2021, published 2024).

For assay [1], the system named is VGP peptide-pulsed cells. The assay can be described thus: IFP+ reporter-based cell killing of VGP peptide-pulsed HEK293T cells. Details: species or system human. The conditions noted are these: HEK293T cells pulsed with serial dilutions of VGP peptide, co-cultured with TCR-transduced T cells; FIG. 9A. How it is done:
(§1) To characterize the recognition of the identified peptide by a TCR, wild-type HEK293 cells were pulsed with serial dilutions of peptide and co-cultured with T cells transduced with the TCR of interest. After 24 hours, cultures were mixed by pipetting, and centrifuged at 2,000 rpm for 2 minutes. Supernatants were collected and measured for IFNγ secretion using a human IFNγ 3rd generation single-plex assay (Protein Simple) following the manufacturer's instructions. Alternatively, monoallelic HEK293T cells expressing a granzyme-activated fluorescent reporter were pulsed with serial dilutions of peptide and co-cultured with T cells transduced with an individual TCR of interest. After 4 hours, the cultures were harvested by pipetting and fluorescence of the reporter was detected using a CytoFLEX™ S instrument (Beckman Coulter).
Data shown in FIGS. 7-9 were generated according to similar materials, methods, and experiments as described above.

In assay [2] the target is T1, MAGEC2 peptide on HLA-A*24:02 (human).
T1 peptide: VGPDHFCVF
The assay can be described thus: killing.

Assay [3] addresses T2, MAGEC2 peptide on HLA-B*07:02 (human).
T2 peptide: RAREFMELL
The assay can be described thus: killing.

The test system of assay [4] is RAR peptide-pulsed cells. The assay can be described thus: T cell recognition assay: IFNγ release on co-culture with RAR peptide-pulsed wild-type HEK293T cells. In kind it is cell-based, human. The conditions noted are these: wild-type HEK293T cells pulsed with serial dilutions of RAR peptide, co-cultured with TCR-transduced T cells; FIG. 4A. On the procedure: as §1

Assay [5] concerns the target T3, RAR peptide-HLA-B*07:02 (pMHC) complex (Homo sapiens, UniProt P01889+Q9UBF1).
T3 construct: expressed in transfected cells; host or cells: MHC-null HEK293T cells engineered to express HLA-B*07:02 (monoallelic reporter cells)
The assay can be described thus: Peptide pulse-based cytotoxicity assay with granzyme-activated fluorescent reporter in HLA-B*07:02 monoallelic HEK293T cells. The assay is classed as cell-based. Particulars: HLA-B*07:02 monoallelic HEK293T reporter cells pulsed with RAR peptide, co-cultured with TCR-transduced T cells; FIG. 4B. On the procedure: as §1

The subject of assay [6] is melanoma cells that express MAGEC2. The assay can be described thus: Reactivity to melanoma cell lines measured by IFNγ release. In kind it is cell-based, human. On the procedure: To detect reactivity to melanoma cell lines, wild-type melanoma cell lines were seeded at 6×10^4 cells in a 96-well flat bottom plate and rested for 16 hours at 37° C. in 5% CO2. On the following day, T cells were thawed, washed in complete RPMI-1640 medium, and added to the wells for an effector to target ratio of 1:1. The co-culture was incubated for 16 hours. Cells were then harvested by pipetting, transferred to V-bottom 96-well plates, and centrifuged at 2,000 rpm for 2 minutes. The supernatant was collected for IFNγ measurement using a human IFNγ 3rd generation single-plex assay (Protein Simple). For flow cytometry analysis (Cytoflex S™ instrument, Beckman Coulter), cell pellets were washed with FACS buffer (PBS, 0.5% BSA, 2 mM EDTA) and stained for activation-induced markers, including PE-conjugated anti-CD137 (Miltenyi), AF647-conjugated anti-CD69 (Biolegend), and BV421-conjugated anti-CD8 (BioLegend).
Melanoma lines were purchased from ATCC (Manassas, VA) and HEK293T cells were originally from Takara Bio (Shiga, Japan). All media were supplemented with 10% FBS and 1% penicillin and incubated at 37° C. in 5% CO2. A101D, A2058, HT144, and HEK293T cells were maintained in complete DMEM. SK-MEL-5 was cultured in complete EMEM, whereas HMCB required complete EMEM with 10 mM HEPES. […]

Assay [7] relates to MAGEC2-expressing melanoma cell lines. The assay can be described thus: Incucyte cytotoxicity assay on NucLight Red melanoma cell lines. In kind it is cell-based, human. Particulars: E:T ratio of 2:1; versus MHC-mismatched control TCR or no T cells; FIG. 6. How it is done:
Melanoma lines were purchased from ATCC (Manassas, VA) and HEK293T cells were originally from Takara Bio (Shiga, Japan). All media were supplemented with 10% FBS and 1% penicillin and incubated at 37° C. in 5% CO2. A101D, A2058, HT144, and HEK293T cells were maintained in complete DMEM. SK-MEL-5 was cultured in complete EMEM, whereas HMCB required complete EMEM with 10 mM HEPES. Untransduced cancer cells were maintained in preparation for the T cell recognition assay, and 10^6 cells of each cell line were introduced with Incucyte® NucLight™ Red lentivirus reagent (Sartorius, Gottingen, Germany). Positively-labeled cells were selected using 1.5 ug/mL of puromycin over 72 hours.
Melanoma cells selected for Incucyte® NucLight™ analysis were seeded into 96-well flat bottom plates (Corning, Flintshire, UK) at 10^4 cells, except for HMCB cells, which were plated at 5×10^3 cells. On the same day, T cells were thawed, washed in complete RPMI-1640, and allowed to rest overnight in medium with 50 U/mL IL-2 (PeproTech), 5 ng/mL IL-7, and 5 ng/mL IL-15 (R&D Systems). All cells were rested for 16 hours at 37° C. in 5% CO2. A two-fold serial dilution of the T cells was performed for the effector to target ratios, with the highest E:T at 4:1, and the lowest at 1:2. […] Imaging utilized a 4× objective lens and data were analyzed using the Incucyte® Basic Software. […]

Entries after “also recorded” stand apart in the source; their conditions may differ.

B1: TCR 4-58: T cell receptor (TRAV10/TRAJ39; TRBV27) recognizing MAGEC2 VGP peptide presented by HLA-A*24:02; tested in transduced T cells (protein)
TCR alpha: RGNGKNQVEQSPQSLIILEGKNCTLQCNYTVSPFSNLRWYKQDTGRGPVSLTIMTFSENTKSNGRYTATLDADTKQSSLHITASQLSDSASYICVVSARNAGNMLTFGGGTRLMVKPHIQNPEPAVYQLKDPRSQDSTLCLFTDFDSQINVPKTMESGTFITDKCVLDMKAMDSKSNGAIAWSNQTSFTCQDIFKETNATYPSSDVPCDATLTEKSFETDMNLNFQNLLVMVLRILLLKVAGFNLLMTLRLWSS
TCR beta: EAQVTQNPRYLITVTGKKLTVTCSQNMNHEYMSWYRQDPGLGLRQIYYSMNVEVTDKGDVPEGYKVSRKEKRNFPLILESPSPNQTSLYFCACASSFGTSGRGEQFFGPGTRLTVLEDLRNVTPPKVSLFEPSKAEIANKQKATLVCLARGFFPDHVELSWWVNGKEVHSGVCTDPQAYKESNYSYCLSSRLRVSATFWHNPRNHFRCQVQFHGLSEEDKWPEGSPKPVTQNISAEAWGRADCGITSASYQQGVLSATILYEILLGKATLYAVLVSTLVVMAMVKRKNS
In the case of B1, the “Recognition and killing of VGP peptide-pulsed cells (IFP+ reporter-based cell killing)” value in assay [1] was “recognizes and kills VGP peptide-pulsed cells”.

B2: MAGEC2 TCR 4-58 (TCR, V domains shown)
Valpha: KNQVEQSPQSLIILEGKNCTLQCNYTVSPFSNLRWYKQDTGRGPVSLTIMTFSENTKSNGRYTATLDADTKQSSLHITASQLSDSASYICVVSARNAGNMLTFGGGTRLMVKP
Vbeta: EAQVTQNPRYLITVTGKKLTVTCSQNMNHEYMSWYRQDPGLGLRQIYYSMNVEVTDKGDVPEGYKVSRKEKRNFPLILESPSPNQTSLYFCACASSFGTSGRGEQFFGPGTRLTVL
In the case of B2, the binding result in assay [2] is “recognises”.

B3: MAGEC2 TCR 8-3 (TCR, V domains shown)
Valpha: ILNVEQSPQSLHVQEGDSTNFTCSFPSSNFYALHWYRWETAKSPEALFVMTLNGDEKKKGRISATLNTKEGYSYLYIKGSQPEDSATYLCASGSGGATNKLIFGTGTLLAVQP
Vbeta: GEEVAQTPKHLVRGEGQKAKLYCAPIKGHSYVFWYQQVLKNEFKFLISFQNENVFDETGMPKERFSAKCLPNSPCSLEIQATKLEDSAVYFCASSQSRSLRGTEAFFGQGTRLTVV
For the molecule B3, the binding result in assay [3] is listed as “recognises”.

B4: TCR 8-3: T cell receptor (TRAV24*01/TRAJ32*02; TRBV16*01/TRBJ1-1*01) recognizing MAGEC2 RAR peptide presented by HLA-B*07:02; tested in transduced T cells (protein)
TCR alpha: ILNVEQSPQSLHVQEGDSTNFTCSFPSSNFYALHWYRWETAKSPEALFVMTLNGDEKKKGRISATLNTKEGYSYLYIKGSQPEDSATYLCASGSGGATNKLIFGTGTLLAVQPNIQNPEPAVYQLKDPRSQDSTLCLFTDFDSQINVPKTMESGTFITDKCVLDMKAMDSKSNGAIAWSNQTSFTCQDIFKETNATYPSSDVPCDATLTEKSFETDMNLNFQNLLVMVLRILLLKVAGFNLLMTLRLWSS
TCR beta: GEEVAQTPKHLVRGEGQKAKLYCAPIKGHSYVFWYQQVLKNEFKFLISFQNENVFDETGMPKERFSAKCLPNSPCSLEIQATKLEDSAVYFCASSQSRSLRGTEAFFGQGTRLTVVEDLRNVTPPKVSLFEPSKAEIANKQKATLVCLARGFFPDHVELSWWVNGKEVHSGVCTDPQAYKESNYSYCLSSRLRVSATFWHNPRNHFRCQVQFHGLSEEDKWPEGSPKPVTQNISAEAWGRADCGITSASYQQGVLSATILYEILLGKATLYAVLVSTLVVMAMVKRKNS
As to B4, in assay [4], the “Recognition of RAR peptide-pulsed cells (IFNγ release)” value is listed as “recognizes”. In addition, the “Killing of RAR peptide-pulsed cells (granzyme-activated fluorescent reporter)” value in assay [5] is given as “demonstrated to kill cells expressing RAR peptide-HLA-B*07:02 (pMHC) complex; also recorded: kills”. The “Relation of TCR reactivity to MAGEC2 expression of melanoma cell lines” value in assay [6] (IFNγ release versus MAGEC2 expression, FIG. 5E) is “corresponds to MAGEC2 expression”. The “Recognition of melanoma cell lines (IFNγ release)” value in assay [6] (melanoma cell lines, E:T 1:1, 16 hours, FIG. 5D) is recorded as “recognizes melanoma cells that express MAGEC2”. Besides, the “Killing of MAGEC2-expressing melanoma cell lines (red object count over time)” value in assay [7] was “demonstrated to kill cancer cells that express MAGEC2; also recorded: kills MAGEC2-expressing melanoma cell lines”.
